Source: the DeepSol protein solubility set

Assay: soluble on expression in E. coli; label from the status in PepcDB or PDB records

| Sequence | soluble on expression in E. coli |
| --- | --- |
| SLPSAQAPSLLNPTDDFAALGNIAWLWMNSPMHRDWPVHLLARNTLAPIQLGQYILLRCNDVPVAYCSWALMDADTELSYVMAPSSLGGNAWNCGDRLWIIDWIAPFSRDDNRALRRALAERHPDSVGRSLRVRRGGDTARVKEYRGRALDAAAARAQLDRYHAELIAGLRASNGGYAPR | soluble |
| MGSDKIHHHHHHLEYVIEMLNIRKEFGSFVANDNITLQLRKGEIHALLGENGAGKSTLMNVLFGLYQPEAGEIRVRGEKVNITSPNVANDLGIGMVHQHFMLVQNFTVTENIILGAEPKAGLKIDRAAAREKVRQISEQYGLAVDPDAKIEDISVGMQQRVEILKTLYRGADILIFDEPSAVLTPQEIKELIQIMNRLIAEGKSIILITHKLKEIMEVADRCTTIRRGKYIGTVDIDETMTQSRLAEMMVGREVNFNAEYSKATPQELVLDIKDLVVKDSRGIKAVDGLNLDIRAGEIVGIAGIDGNGQTELIEAITGLRKADSGEIFLNNKSIKNLKPRKVTEAGVGHIPQDRHKHGLVLDYSIGHNMVLQTYYQKPYSKAGIMNYGQVMDKAKTLIEKFDVRTPSPETFARALSGGNQQKAIIAREVDRSPDLLIAAQPTRGLDVGAIEFIHEQLVLEREKGRAVLLISFELEEILQVSDRIAVLYEGRTVAFLDPKETNEIELGFLMAGGKKEEVGRS | not soluble |
| MGSDKIHHHHHHMNRLIRTGVLGFLVWLAGCGHAPVQEKPTPEELKQRALQSAKIHTELAGQYYHRGQYRVAIEEAEIALQKKTDYAPAYNMLGLVYMDLQEDDRAEWNFERGLGITPNDPDIRNNFGWFLCQRKPDGIEQAIGHFMAAVRDPLYETPERTYTNAGLCVLKQNDFERAQSYFQEALVIRPGYPLARLGLVELDFSRGEVKKAWAAINRYLQTYPPAPGSLWLAVRIARANGDVNAETNYAFQLQKRFPDSREARESRAGRLNHER | not soluble |
| MAEAIFSAIVGDVIGRVISLVVSNFNGDHSTEVKLQRICRMLIKIHSVVEEAKGRQITNHGTLEWLSELIDGAYQGRYLLDTIGCGEPDLDDKNRDEVDPKPFSLSKFNPAKRVRVAAFTVRNILSRHDIGVDEIDRVVESLQSMCGDLKEFMMLLQACQPIHRPLATNIFIEGQMFGRHVKKEMIINFLLHEDDLPRGKLGVLPILGDIGVGKTTLVQHACDDARVRSHFTTILLFNFSHTYKMEMCEPKPVLRPKHVIGDVGNSDDPLHELEQSFFNKRFLIVFEDVDIHKKNMLEELLKSLSCGKQGSKIIVTTSNKHVTTIGTVQPIKLKFLPCPEYWFFFKAHAFAGTDVQENPRLVAAGKSIAAKLNGSFFGAKIIGAILKENPDPKFWCTVLQRDIGGLSLLGDGLGYIADLVEILLPSRLSVKEVFVSKNSLSSETELARLQGLCLPCPSSAPLATHSSELSLAKATSYERVLLCKAVLPFYSLYYTAKCAVDSENCYSKFSVV | soluble |
| MDNYQEITRYLDNAREILSTKANKEGQFYKDIKYVQMASGTAYNAALMIADEYLRKKEGAKFTKPNSIDEYRVRLNKHNKTLLAYLNRAYDMLHLAGYYHGTPSVGTIKQGMEAAQKMLALIEH | soluble |
| MSLTADPPACTVPAAGGASTHKLVNAGAEKMIFKIKSSNNNEYRITPVFGFVDPSGSKDITITRTAGAPKEDKLVVHFAAAPADATDAQAAFAAITPAGTITIPMSATA | soluble |
| MNLMTTITGVVLAGGKARRMGGVDKGLLELNGKPLWQHVADALMTQLSHVVVNANRHQEIYQASGLKVIEDSLADYPGPLAGMLSVMQQEAGEWFLFCPCDTPYIPPDLAARLNHQRKDAPVVWVHDGERDHPTIALVNRAIEPLLLEYLQAGERRVMVFMRLAGGHAVDFSDHKDAFVNVNTPEELARWQEKRSHHHHHH | soluble |
| AMVSVSGIRKVQRAEGPATVLAIGTANPPNCVDQSTYADYYFRVTNSEHMTDLKKKFQRICERTQIKNRHMYLTEEILKENPNMCAYKAPSLDAREDMMIREVPRVGKEAATKAIKEWGQPMSKITHLIFCTTSGVALPGVDYELIVLLGLDPSVKRYMMYHQGCFAGGTVLRLAKDLAENNKDARVLIVCSENTSVTFRGPSETDMDSLVGQALFADGAAAIIIGSDPVPEVENPLFEIVSTDQQLVPNSHGAIGGLLREVGLTFYLNKSVPDIISQNINDALSKAFDPLGISDYNSIFWIAHPGGRAILDQVEEKVNLKPEKMKATRDVLSNYGNMSSACVFFIMDLMRKKSLEAGLKTTGEGLDWGVLFGFGPGLTIETVVLRSMAI | soluble |
| GPGSMSGIKIEEVISTTKKERVAAHSHVKGLGLNPDGTTKHIADGFVGQEKAREAAGIAVELIRSKKMAGRALLFAGPPGTGKTALALGIAKELGPKVPFCPMVGSEVYSAEVKKTEVLMENFRRAIGLRIKENKEVYEGEVTELRAEETDNPLGGYGKSISHVIITLKSQKGSKLLKLDAAIYESLEKEKVSVGDVIYIEASSGAVKRVGRSDAYIGDHDLEADEYVPIPKGDVHKKKEVIQDVTLHDLDMANAKPSQGQDALSIVSSMMRHKKTEVTEKLRQEINKVVNKYIDQGVAELVPGVLFIDEVHMLDIECFTYLNKALESTLAPVVIFATNRGSCRIRGTEIRAPHGMPTDLLDRLLIIRTMNYDVSEITSIVEIRAHVEGVKISEAALTKLGIIGESTSLRFVVQLLTPALIIAETNGREMLEEEDVDLVAELFKDGKASARQLQDHAEEYVYQ | soluble |
| MEHRYRTNLKKVFLSDSELNQLNINIDQSGCKSFSEYARRTLLDPGMNFITIDTNGYQDLVFELKRIGNNINQIARSVNQSQLISGEELQELKKGIGELIKEVDKEFNLQAQKLKEFHGHH | not soluble |
| MGSDKIHHHHHHMSKITFKDIYIDGNKITEDSRKAIYLLPPQPLKYASNTWIYKTMPTMNQWLKDIEVQKKMHLNQSSYHLSFSFPANEKIDEVLLEKIRELGFQIGVLELYVIEAKALKELSRKRDVDIQLVSSNNINDYLHVYDAFARPFGDSYANMVKQHIYSSYNLDDIERLVAYVNHQPVGIVDIIMTDKTIEIDGFGVLEEFQHQGIGSEIQAYVGRMANERPVILVADGKDTAKDMYLRQGYVYQGFKYHILKENI | not soluble |
| MMAEFETVNDVKQLNGLALAYIGDAVYEVYVRRHLLAGGSVRPHELHRRAVRYVSARAQARVILALLDEGVLTEEEKDIVRRGRNAKSGTIPKNTDVQTYRHSTAFEALIGYHFLVNNEKRVDELIGRSFAIIEREERALE | not soluble |
| MGRFRRVLTTAVLTTLLVGGTAGWASASSASVPGGPLPGTAAWLADDFLGRELPDPGTATPAEVAAFFAGLSDVQRHRLAEDHPAVVGNLDGVPVHLRYEANAPAGDRVLAYDPRGRGTIARVAGDLENAAHVSVIVPGSDIDAETFDRTAQRAADLQAAAGDDTAVIAWAGYTTPSGIGPDLATGRLAEAGAERLARLTEGLDAAGLPDPSLFCHSYGSVVCGLAADDTDARDIVVMGSPGMRADDVGALGTDAHVWAAKSPDDWIDRVPNVEFLGLGHGADPTSPGFGATVLPADDVPAHDEYFTPGTSTLAAFAAIADGERPLEHHHHHH | not soluble |
| MSLFTGYGNCYRLDALELAAEHGHTMQHWTFKTIEHFRSILANPEFPCLFGRKAVNGETCHILFARAEQLADDIAQGLANYVRTVAPIAPKQRIGSPLVVFLETAAGSSLAEQQALAWKVLRGVHARDPHPWPQGIPTDPDDTGWSFCYAGMPLFINMNFPGHQQMKSRNLGQHITFVINPRENFDEVANANTESGKRIRERIRERVHHYNDGVVPDTLGFFGDTDNYEWKQYQLQEAGSLNPSRCPFHAHAAHQPTPDILIENEGHHHHHH | not soluble |
| KRKTKEQLAILKSFFLQCQWARREDYQKLEQITGLPRPEIIQWFGDTRYALKHGQLKWFRDNA | soluble |
| MAQMTMVQAITDALRIELKNDPNVLIFGEDVGVNGGVFRATEGLQAEFGEDRVFDTPLAESGIGGLAIGLALQGFRPVPEIQFFGFVYEVMDSICGQMARIRYRTGGRYHMPITIRSPFGGGVHTPELHSDSLEGLVAQQPGLKVVIPSTPYDAKGLLISAIRDNDPVIFLEHLKLYRSFRQEVPEGEYTIPIGKADIKREGKDITIIAYGAMVHESLKAAAELEKEGISAEVVDLRTVQPLDIETIIGSVEKTGRAIVVQEAQRQAGIAANVVAEINERAILSLEAPVLRVAAPDTVYPFAQAESVWLPNFKDVIETAKKVMNF | soluble |
| MSLINKEILPFTAQAFDPKKDQFKEVTQEDLKGSWSVVCFYPADFSFVCPTELEDLQNQYEELQKLGVNVFSVSTDTHFVHKAWHDHSDAISKITYTMIGDPSQTITRNFDVLDEATGLAQRGTFIIDPDGVVQASEINADGIGRDASTLAHKIKAAQYVRKNPGEVCPAKWEEGAKTLQPGLDLVGKI | not soluble |
| MQPLKRIRHPSGSEILFDAKWHQYKLGGTALRSVSKLLDRFFPFDEKRVLELVSKKTGQPVDKIKQGWSRQALLGKNVHEFIECKLLKKPPPTFTLLMKRKQAREAARPADATGPAAITTTPLEDEVLHGEEALYLPVAEMAVEKVLSTYDVLGAEQVIAAPGWGIAGTIDFMGRNRRTNRVLIGDWKTTGSVTSNFRFGSFETACPGALRHLPNSKMYRYAMQVTIYGEILAREQYFEKQFFDAQLRASLTASLAVPSTDVTPPAPPAKTRGRPSSRAAAPAKSDIGSDVESLLKTFYRNNTEQRFEYGIVQLAKGEDGGVVAEFKEVTPETVMPPDCPEMTFDSLLQRVMEGVGV | soluble |
| MGSDKIHHHHHHMAQNFHDNSQVSSEMSTAISRTAKPSSEFYSIFSEEEILGIICALEIRREIPLKYSYKGRGAKIWDDFYQKYIIPRWYRISNVEIELLKSNFKYFNDNIKSGEKINIVDVGAGNSYPVKDFVQRLNKLNKINKYVALDISEELLNLSKNNFKKWFPNVEFISSTIDIENNCVPKTLFQNNPDLEMDNTAKIFLHLGVTIGNHQNRDKVFKNFRESMGKNDFLVFTNEIGSNSKWDGNVRGGCKYHVEEIYGWVKNKVGIESEGCELVRKYDLKTDSIVANIRFNHDYTINFSRMGIDKKIEISEGEEITIWRHHKYEMPKLLQELERSGLQLIQYSTDKYKSHIMVICKISSN | not soluble |
| MGSDKIHHHHHHMNQFHLTEDQQDCLQELINIAMGQASDQLARYLDTFVYLKVPSIESVEAKDLMKTLSQQKNTVAVVSQGFFGYEGIRGEALLVYKEENSGRIADLLGYEPDELSQDEQLIDISSILTTTFLNVFAQQINNQLSYNAPKLLPNVQEILSEHLQQMPFTWDLALKVNINYQVTDYSFNCNMILLIPETAITNIKHVLDRILEEF | not soluble |
| MDLSAVRFDEKGLVPVVVQDARTGEVLTLAYANREALEETLRTRRSTFFSRSRQALWRKGETSGHTQEVVEVLLDCDGDAVVYRVLPQGPACHTGERTCFHRALLEGEKDLGFVVGQVYATIKERLRTLPEGSYVARMHQAGLDRILKKIGEEAGEVILAAKNQNPEELRHEAADLLFHLLLTLAELGLTPEDLAKTLWERHRPRSPYDGSHGN | soluble |
| MKVNDRVTVKTDGGPRRPGVVLAVEEFSEGTMYLVSLEDYPLGIWFFNEAGHQDGIFVEKAE | soluble |
